Test results from patent publication US20040228866A1, “Suppressor genes” (Ludwig Institute for Cancer Research, priority 2000, published 2004).

Tests used:
[1] = molecular target: T1, p53 (Homo sapiens, UniProt P04637); assay: Transient luciferase reporter assay of p53 transactivation function in Saos-2 cells; format: cell-based
T1 construct: expressed in transfected cells
Method: (§1) The amount of luciferase expression was determined as previously described in Samuels-Lev et al. (Mol. Cell 8:781-94, 2001, herein incorporated by reference).
(§2) The amount of transactivation function was determined as described in Example 4.
(§3) To determine the amount of protein expression, Saos-2 cells (5×10^5) were plated 24 hours prior to transfection in 6 cm dishes. […] To determine the amount of gene activation, after transfection, the cells were lysed in Reporter Lysis Buffer 16-24 hours post-wash and assayed using the Luciferase Assay kit (Promega, Wis.). The fold activation of a particular reporter was determined by the activity of the transfected plasmid above the activity of vector alone.
(§4) The expression level of transfected proteins was detected using 40 μg of the respective lysates using the antibodies V5, DX.5410, DO1, 4A4 and p73. […] Results were derived from at least three independent experiments.

[2] = molecular target: T2, p53 (Homo sapiens, UniProt P04637, R181C); assay: as above; format: cell-based; details: Bax-luc, FIG. 6B
T2 construct: expressed in transfected cells
Method: as §1, §2, §3, §4

[3] = molecular target: T3, p63γ (Homo sapiens, UniProt Q9H3D4); assay: Transient luciferase reporter assay of p63γ transactivation function; format: cell-based; details: FIG. 14C
T3 construct: expressed in transfected cells; host or cells: Saos-2
T3 sequence (Q9H3D4 1-487 isoform Q9H3D4-5): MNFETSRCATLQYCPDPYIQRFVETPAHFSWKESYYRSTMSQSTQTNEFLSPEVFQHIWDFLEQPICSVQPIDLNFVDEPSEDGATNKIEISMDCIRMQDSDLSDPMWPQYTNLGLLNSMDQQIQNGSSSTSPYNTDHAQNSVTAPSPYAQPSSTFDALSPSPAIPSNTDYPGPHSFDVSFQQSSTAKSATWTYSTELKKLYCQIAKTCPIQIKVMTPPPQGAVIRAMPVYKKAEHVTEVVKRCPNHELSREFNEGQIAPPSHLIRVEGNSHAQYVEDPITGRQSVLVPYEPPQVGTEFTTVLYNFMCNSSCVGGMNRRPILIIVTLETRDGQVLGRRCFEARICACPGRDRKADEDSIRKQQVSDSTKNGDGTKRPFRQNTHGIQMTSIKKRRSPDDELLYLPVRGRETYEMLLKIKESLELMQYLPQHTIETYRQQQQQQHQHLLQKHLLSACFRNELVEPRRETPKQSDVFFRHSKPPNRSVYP
Method: as §3, §4

[4] = molecular target: T4, p73α (Homo sapiens, UniProt O15350); assay: Transient luciferase reporter assay of p73α transactivation function; format: cell-based
T4 construct: expressed in transfected cells; host or cells: H1299 and Saos-2; part of the results from in vitro translation
T4 sequence (O15350 1-636): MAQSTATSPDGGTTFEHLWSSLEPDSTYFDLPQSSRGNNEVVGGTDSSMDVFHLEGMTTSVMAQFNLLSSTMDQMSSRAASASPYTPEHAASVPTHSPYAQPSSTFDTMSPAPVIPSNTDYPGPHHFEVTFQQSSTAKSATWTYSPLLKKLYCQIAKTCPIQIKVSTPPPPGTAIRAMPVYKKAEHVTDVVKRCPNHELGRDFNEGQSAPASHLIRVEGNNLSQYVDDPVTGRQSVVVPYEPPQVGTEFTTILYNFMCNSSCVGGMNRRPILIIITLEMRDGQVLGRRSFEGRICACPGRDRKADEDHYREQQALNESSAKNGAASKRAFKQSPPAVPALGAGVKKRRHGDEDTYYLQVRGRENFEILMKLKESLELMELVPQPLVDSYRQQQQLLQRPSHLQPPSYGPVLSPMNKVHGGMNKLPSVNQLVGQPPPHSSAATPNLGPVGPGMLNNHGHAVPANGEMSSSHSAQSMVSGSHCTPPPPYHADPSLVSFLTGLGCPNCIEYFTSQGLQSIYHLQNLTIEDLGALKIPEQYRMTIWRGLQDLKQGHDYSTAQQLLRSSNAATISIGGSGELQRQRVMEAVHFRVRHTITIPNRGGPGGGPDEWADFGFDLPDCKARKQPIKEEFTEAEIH
Method: as §3, §4

[5] = tested on: Saos-2 cells; assay: Apoptosis by flow cytometry (CD20-gated, sub-G1 DNA content) in transfected Saos-2 cells; format: cell-based
Method: Apoptosis was identified by the expression of the co-transfected cell surface marker CD20, as described in Samuels-Lev et al. (Mol. Cell 8:781-94, 2001, herein incorporated by reference).
The number of apoptotic cells was determined using the methods described in Example 6.
Cells (10^6) were plated 24-48 hours prior to transfection in 10 cm plates. Cells were grown in DMEM supplemented with 10% FCS and transfected with 2 μg of a plasmid expressing CD20 as a transfection marker. Increasing amounts of ASPP1 and ASPP2 were transfected (7.5 μg, 15 μg and 25 μg). 36 hours after the transfection, both attached and floating cells were harvested and analysed using flow cytometry as follows. The transfected cells were gated based on the expression of CD20. The percentage of apoptotic cells was measured by the accumulation of cells with a sub-G1 DNA content derived from at least three individual experiments.
The transfected cells were analyzed by flow cytometry as described in Example 6.

[6] = tested on: U2OS and MCF7 cells; assay: Apoptosis by FACS in U2OS and MCF7 cells expressing wild-type p53, with or without cisplatin; format: cell-based, human; details: no cisplatin
Method: The transfected cells were gated, and the apoptotic cells identified by FACS as described in Example 6.
Before exposure to cisplatin (5 and 3 μg/ml respectively), U2OS and MCF7 cells were transfected with plasmids encoding HPV16 E6, iASPP, or 53BP2. Thirty hours later, cells were harvested and analysed as above.
Fragments from the 5′ ends of ASPP1, ASPP2 and iASPP cDNA were cloned into a mammalian expression vector in an antisense orientation and their ability to inhibit the protein synthesis determined in vitro. The antisense nucleic acid molecules were amplified by PCR on the respective plasmid clones using primers spanning the following nucleotide regions (relative to the initial ATG): −74 to 923; −253 to 839 and −37 to 536 for ASPP1, ASPP2 and iASPP respectively. The amplified segments were purified with the QIAquick PCR purification kit (QIAGEN) and ligated in the pcDNA3.1/V5-His TOPO vector (Invitrogen) according to the manufacturer's instructions.
U2OS and MCF-7 cells were transfected with the various expression plasmids prior to the treatment with cisplatin and analyzed using FACS as described above.
To determine the anti-apoptotic role of iASPP, both U2OS and MCF-7 cells were transfected with antisense iASPP and cells analyzed as described above. […] A small increase in apoptotic cells was consistently detected (FIG. 7D).

B1: ASPP1: Apoptosis Stimulating Protein 1, protein of SEQ ID NO: 2, expressed from a transfected plasmid (protein, listed as Homo sapiens)
chain: MMPMILTVFLSNNEQILTEVPITPETTCRDVVEFCKEPGEGSCHLAEVWRGNERPIPFDHMMYEHLQIWGPRREEVKFFLRHEDSPTENSEQGGRQTQEQRTQRNVINVPGDKRTEYGVGNPRVELTLSELQDMAARQQQQIENQQQMLVAKEQRLHFLKQQERRQQQSISENEKLQKLKERVEAQENKLKKIRAMRGQVDYSKIMNGNLSAEIERFSAMFQEKKQEVQTAILRVDQLSQQLEDLKKGKLNGFQSYNGKLTGPAAVELKRLYQELQIRNQLNQEQNSKLQQQKELLNKRNMEVAMMDKRISELRERLYGKKIQLNRVNGTSSPQSPLSTSGRVAAVGPYIQVPSAGSFPVLGDPIKPQSLSIASNAAHGRSKSANDGNWPTLKQNSSSSVKPVQVAGADWKDPSVEGSVKQGTVSSQPVPFSALGPTEKPGIEIGKVPPPIPGVGKQLPPSYGTYPSPTPLGPGSTSSLERRKEGSLPRPSAGLPSRQRPTLLPATGSTPQPGSSQQIQQRISVPPSPTYPPAGPPAFPAGDSKPELPLTVAIRPFLADKGSRPQSPRKGPQTVNSSSIYSMYLQQATPPKNYQPAAHSALNKSVKAVYGKPVLPSGSTSPSPLPFLHGSLSTGTPQPQPPSESTEKEPEQDGPAAPADGSTVESLPRPLSPTKLTPIVHSPLRYQSDADLEALRRKLANAPRPLKKRSSITEPEGPGGPNIQKLLYQRFNTLAGGMEGTPFYQPSPSQDFMGTLADVDNGNTNANGNLEELPPAQPTAPLPAEPAPSSDANDNELPSPEPEELICPQTTHQTAEPAEDNNNNVATVPTTEQIPSPVAEAPSPGEEQVPPAPLPPASHPPATSTNKRTNLKKPNSERTGHGLRVRFNPLALLLDASLEGEFDLVQRIIYEVEDPSKPNDEGITPLHNAVCAGHHHIVKFLLDFGVNVNAADSDGWTPLHCAASCNSVHLCKQLVESGAAIFASTISDIETAADKCEEMEEGYIQCSQFLYGVQEKLGVMNKGVAYALWDYEAQNSDELSFHEGDALTILRRKDESETEWWWARLGDREGYVPKNLLGLYPRIKPRQRTLA
stimulation of the transactivation function of p53 on the Bax promoter ([1]; Example 16, FIGS. 14A and 14B): around 6 fold
stimulation of the promoter activity of mdm2 and cyclin G ([1]; co-expression with p53): very modest stimulation
promoter activity of PIG-3 ([1]; transient transfection reporter assay): specifically stimulated
transactivation function of mutant p53 181C on the Bax gene promoter [2]: unable to stimulate
transactivation function of p63γ on the mdm2 promoter [3]: failed to stimulate
stimulation of the transactivation function of p73α on the Bax promoter ([4]; Example 16, FIGS. 14A and 14B): 3 fold
transactivation function of p73α on the mdm2 promoter ([4]; FIG. 14C): failed to stimulate
effect on apoptotic function of p53 mutants 181L and 181C ([5]; FIG. 6A): failed to enhance the apoptotic function of either p53 mutant
transfected cells that die of apoptosis ([5]; co-expressed with p53, Example 6, FIGS. 4A and 4C): Approximately 50%
increase in percentage of cells that die of apoptosis with E2F1 ([5]; co-expression with E2F1, FIG. 4B): only an additive increase
apoptotic function of p63γ and p73α ([5]; co-expression, FIG. 15): enhanced the apoptotic function of p63γ and p73α
apoptosis when expressed alone ([5]; no p53 co-expressed): lower level of apoptosis
effect on apoptosis induced by p53H175-L ([5]; transcriptionally inactive, mitochondria-targeted mutant p53, FIG. 9A): failed to enhance the apoptotic function of p53H175-L
apoptosis on expression in cells with endogenous wild-type p53 [6]: induced apoptosis
